The results in this text go back to patent US20110059093A1 (Hoffmann-La Roche, published 2011).

In test [1] the target is T1, phosphorylated MCAK fragment Ile-Gln-Lys-Gln-Lys-Arg-Arg-Ser(PO3H2)-Val-Asn-Ser-Lys-Ile-Pro-Ala (SEQ ID NO:17) (human, also: Glu(biotinyl-PEG) coupled to the peptide, site not given here).
T1 construct: Fragment of human mitotic centromere-associated kinesin (KIF2C, UniProt Q99661 printed); biotinylated control peptide; also called MCAK phosphopeptide
T1 peptide: IQKQKRR[pS]VNSKIPA
Put plainly: ELISA, single point, MCAK phosphopeptide coated. On the procedure: (§1) Rabbit monoclonal antibodies were recombinantly expressed in HEK 293 cells. Cell culture supernatants or purified rabbit antibodies were tested for binding to biotinylated Tau (416-430)[pS422], non-phosphorylated Tau (416-430), KLH (key hole limpet hemocyanine) and the unrelated phospho-peptide MCAK_Human (88-102)[95-pSer] by ELISA. For the preparation of ELISA plates, streptavidine pre-coated microtiter plates were incubated with biotinylated Tau ([…])[pS422] at 50 ng/ml for 1 hour at room temperature. Coating with KLH or control peptides was performed at 1 μg/ml. Rabbit Anti Tau pS422 antibody (Abcam AB51071) or rabbit antibody containing supernatants were incubated in the antigen labeled microtiter plates for 60 min at various concentrations. After intensive washing, the binding of the rabbit antibodies was detected using a sheep anti-rabbit IgG digoxigenin conjugated detection antibody (Chemicon AQ301D). After incubation with TMB at room temperature absorbance at 370 nm-492 nm was measured. The antibody binding was characterized by its EC50 values. The antibody binding to biotinylated Tau (416-430)[pS422] and non-phosphorylated Tau (416-430) peptides was characterized by its EC50 values. Cross-reactivity with KLH or MCAK phosphopeptide was estimated by single-point measurement at high concentrations, i.e. at 1:5 dilution of the cell culture supernatants. […] Binding to KLH and MCAK control phosphopeptide was at background level with all antibodies, which is about […] of the maximal value measures with Tau phosphopeptide.
Background: ELISA stands for enzyme-linked immunosorbent assay.

The target of test [2] is T2, phosphorylated Tau fragment Ser-Ile-Asp-Met-Val-Asp-Ser(PO3H2)-Pro-Gln-Leu-Ala-Thr-Leu-Ala-Asp (SEQ ID NO:9) (human, also: biotin attached through 1x epsilon-lysine and 4x beta-alanine, site not given here).
T2 construct: also called Tau (416-430)[pS422]; Tau phosphopeptide
T2 peptide: SIDMVD[pS]PQLATLAD
Put plainly: ELISA, ratio of EC50 values on the two peptides.

Test [3] has as its target T3, KLH (key hole limpet hemocyanine).
T3 construct: Control antigen coated at 1 µg/ml
As to the kind of experiment: ELISA, single point, KLH coated. The protocol:
as §1

The target of test [4] is T2, phosphorylated Tau fragment …. Put plainly: ELISA, biotinylated peptide on streptavidin plate, anti-rabbit IgG detection. On the procedure: as §1
Test [5] deals with T4, Tau fragment Ser-Ile-Asp-Met-Val-Asp-Ser-Pro-Gln-Leu-Ala-Thr-Leu-Ala-Asp (SEQ ID NO:10) (human, also: biotinylated, site not given here).
T4 construct: Biotinylated control peptide on streptavidin plates; also called nonphosphorylated Tau fragment; non-phosphorylated Tau (416-430)
T4 peptide: SIDMVDSPQLATLAD
The test is described as above. The protocol:
as §1

Test [6] deals with T1, phosphorylated MCAK fragment …. Put plainly: ELISA, biotinylated peptide on streptavidin plate. The protocol: Peptides representing the Tau pS422 sequence 416-430 (phosphorylated and non phosphorylated) and MCAK_Human (88-102)[95-pSer] were synthesized and biotinylated to allow the coating to a streptavidin labeled microtiter plate. To test for maximal binding of Tau phosphopeptide to the assay plates, different concentrations of Tau phosphopeptide ranging from 1 ng/ml to 2000 ng/ml were used for coating. Finally 50 ng/ml Tau phosphopeptide was used for coating for 60 min at room temperature. Anti Tau pS422 antibodies 2.10.3., 2.20.4. and 5.6.11 were incubated in the peptide labeled microtiter plates for 60 min in concentrations up to 1000 ng/ml. After washing, the binding of the antibodies was detected using an anti-mouse—IgG Fc antibody which was POD-labeled. After incubation with ABTS® for 20 min at room temperature absorbance (O.D.) at 405 nm-492 nm was measured. The antibody binding was determined by EC₅₀. Typical EC₅₀ value could be determined in the range of 100 ng/ml for 2.10.3., 8 ng/ml for 2.20.4. and 1 ng/ml for 5.6.11. The nonphosphorylated Tau fragment and (MCAK_Human (88-102)[95-pSer]) were used as controls. No binding of the control peptides could be observed. Typical back-ground values were around 30 mE (Table 1), which is about 1% of the maximal value measured with phosphorylated Tau fragment. […]

Square brackets hold non-standard residues; d marks the D form. Ends that are not written are not given here. pS = N[C@@H](COP(=O)(O)O)C(=O)O Bounds are passed on as bounds.

B1: anti-Tau pS422 antibody Mab 019 (antibody, V domains shown)
VH: QSVEESGGRLVTPGTPLTLTCTVSGIDLSSYTMNWVRQAPGKGLDWIGFINSGGYTSYASWTRGRFTISKTSTTVDLRITSPTTEDTATYFCARYGGGSGFDLWGPGTLVTVSS
VL: QVLTQTASSVSAAVGGTVTINCQSSQSVYNNRLAWYQQKPGQPPKLLIYKASTLASGVPSRFKGSGSGTQFTLTISDLECDDAATYYCAGGYINIFAFGGGTEVVVK
notes: Rabbit monoclonal antibody, recombinantly expressed in HEK293 with rabbit kappa and gamma constant regions
With B1, the “OD 1:5 dilution of supernatant” value stood at 0.023 mE in test [1] and 0.026 mE in test [3]. Besides, the “selectivity compared to non-phosphorylated Tau peptide” value in test [2] is at least 100 fold. In addition, the EC50 – broadly, the concentration that produces a half-maximal response – in test [4] is below 0.003 µg/mL; in test [5] it was 1.08 µg/mL.

B2: anti-Tau pS422 antibody Mab 097 (antibody, V domains shown)
VH: QSVEESGGRLVTPGTPLTLTCTVSGIDLSSYSITWVRQAPGKGLEYIGFIGTGGSTYYASWAKGRFTISRTSTTVDLKITSPTTEDTATYFCARGGDLWGPGTLVTVSS
VL: QVLTQTASSVSAAVGGTVTINCQSSQNVYNNNKLAWFQQKPGQPPKRLIYGASTLASGVSSRFKGSGSGTQFTLTISDLECDDAATYYCLGGYSGNIYTFGGGTEVVVK
notes: as for B1
As to B2, the “OD 1:5 dilution of supernatant” value was 0.029 mE in test [1] and 0.042 mE in test [3]. In addition, the “selectivity compared to non-phosphorylated Tau peptide” value in test [2] was at least 100 fold. Moreover, the figures for the EC50 in test [4] and in test [5] were 0.0013 µg/mL and 1.28 µg/mL, respectively.

B3: anti-Tau pS422 antibody Mab 085 (antibody, V domains shown)
VH: QSVEESGGRLVTPGTPLTLTCTVSGLSLSSNAINWVRQAPGKGLEWIGYIAVSGNTYYASWAKGRFTISKASTTVDLKMTSPTAEDTGTYFCGKSNIWGPGTLVTVSL
VL: QVLTQTASPVSAAVGITVTISCQSSQSVRTNKLAWFQQKPGQPPKRLIYSASTLDSGVPSRFSASGSGTQFTLTISDVQCDDAATYYCLGYYDCSIADCVAFGGGTEVVVK
notes: as for B1
On to B3, for which the “OD 1:5 dilution of supernatant” value amounted to 0.062 mE in test [1] and 0.029 mE in test [3]. Further, the “selectivity compared to non-phosphorylated Tau peptide” value in test [2] was at least 100 fold. The EC50 in test [4] was 0.0009 µg/mL; in test [5], 0.146 µg/mL.

B4: anti-Tau pS422 antibody Mab 086 (antibody, V domains shown)
VH: QSVEESGGRLVTPGTPLTLTCTVSGFSLSSNAINWVRQAPGKGLEWIGYIAVSGNTYYASWAKGRFTISKASTTVDLKMTSPTAEDTGTYFCGKSNIWGPGTLVTVSL
VL: QVLTQTTSPVSAAVGSTVTISCQSSQSVRTNKLAWFQQKPGQPPKRLIYSASTLDFGVPSRFSASGSGTQFTLTISDVQCDDAATYYCLGYFDCSIADCVAFGGGTEVVVK
notes: as for B1
Regarding B4, the “OD 1:5 dilution of supernatant” value stood at 0.104 mE in test [1] and 0.046 mE in test [3]. In test [2], the “selectivity compared to non-phosphorylated Tau peptide” value was at least 100 fold. In addition, the figures for the EC50 in test [4] and in test [5] were 0.0011 µg/mL and 0.266 µg/mL, respectively.

B5: anti-Tau pS422 antibody Mab 005 (antibody, V domains shown)
VH: QSVEESGGRLVTPGTPLTLTCTVSGLSLSSNAINWVRQAPGKGLEWIGYISTSGNTYYASWAKGRFTISKTSTTVDLKITSPTTEDTATYFCGRGDLWGPGTLVTVSS
VL: QVLTQTASPVSAAVGSTVTINCQASQSVYKNNYLAWFQQKPGQPPKRLIYSASTLASGVSSRFKGSGSGTQFTLTISDVQCDDAATYYCLGSCDSSSNNCVAFGGGTEVVVK
notes: as for B1
Consider B5, for which the “OD 1:5 dilution of supernatant” value in test [1] was found to be 0.067 mE; in test [3] it was 0.026 mE. Further, the “selectivity compared to non-phosphorylated Tau peptide” value in test [2] is at least 100 fold. For the same molecule, the EC50 in test [4] was below 0.003 µg/mL; in test [5] it was 3.73 µg/mL.

B6: anti-Tau pS422 antibody Mab 020 (antibody, V domains shown)
VH: QSVEESGGRLVTPGTPLTLTCKVSGFSLSSYDMNWVRQAPGKGLEWVGAISTGGNTYYASWAKGRFTISKTSTTVTLTITSPTTADTATYFCARGSSIWGPGTLVTVSL
VL: QVLTQTASPVSAAVGSTVTINCQASQSVYKNNYLRWYQQKPGQPPKRLIYTASTLASGVSSRFKGSGSGTQFTLTISDVQCDDAATYYCLGGYDCNSADCWAFGGGTEVVVK
notes: as for B1
Take B6: the “OD 1:5 dilution of supernatant” value in test [1] was determined as 0.01 mE; in test [3], 0.016 mE.

B7: Mab2.10.3 (anti-Tau pS422 antibody) (antibody, IgG1, V domains shown)
VH: EVQLVESGGDLVRPGGSLKLSCAASGFTFRTYGMSWVRQTADKRLEWVATISSGGTYTYYADNVRERFTISRDNARDTLYLQMSRLESDDTAMYYCTRRYGYDGGGSFDVWGAGTRVTVSS
VL: EIVMTQAAPSVPVTPGESASISCRSNKSLLHSNGNTYLCWFLQRPGQSPQLLIYRMSTLAPGVPDRFSGSGSGTAFTLRISRLEAEDVGVYYCMQHIEYPLTFGAGTKLELK
notes: Mouse monoclonal antibody purified from hybridoma supernatant; also called clone 2.10.3; Tau_2.10.3
As to B7, the binding result in test [6] is given as “no binding (tested: up to 1000 ng/ml)”.
